From article PMC1950529
Like-named read-outs stand apart in the source and are kept apart here.

Experiments:
[1] = target: Thermus aquaticus DnaB helicase (Thermus aquaticus); test: SEC
[2] = target: Thermus aquaticus DnaB helicase (Thermus aquaticus); test: SEC; remark: listed apart in the source

“Thermus aquaticus DnaB helicase (enzyme)” showed a stoichiometry N [1] of 6 and a stoichiometry N [2] of 6.
